Assay results published in patent US20160194407A1.

T1: recombinant murine CD73 protein (form not stated) (murine) (UniProt Q61503)
T1 sequence (looked up): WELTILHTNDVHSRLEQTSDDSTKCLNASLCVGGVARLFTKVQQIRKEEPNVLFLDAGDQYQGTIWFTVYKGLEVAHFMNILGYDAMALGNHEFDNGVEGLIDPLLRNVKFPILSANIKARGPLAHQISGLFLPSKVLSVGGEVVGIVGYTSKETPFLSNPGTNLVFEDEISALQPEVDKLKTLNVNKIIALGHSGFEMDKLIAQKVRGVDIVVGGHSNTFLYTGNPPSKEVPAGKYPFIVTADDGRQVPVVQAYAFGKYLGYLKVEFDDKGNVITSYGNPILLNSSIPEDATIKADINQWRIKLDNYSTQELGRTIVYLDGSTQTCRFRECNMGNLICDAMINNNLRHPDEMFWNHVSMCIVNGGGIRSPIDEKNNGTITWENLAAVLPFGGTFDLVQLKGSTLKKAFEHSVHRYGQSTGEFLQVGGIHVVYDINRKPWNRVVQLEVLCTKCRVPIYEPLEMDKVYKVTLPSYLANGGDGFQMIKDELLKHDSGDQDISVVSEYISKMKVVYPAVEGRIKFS


Molecular target: T1, recombinant murine CD73 protein (form not stated) (murine)
Experiment: Binding, Mouse; assay not described

| Binder | 1/EC50 |
| --- | --- |
| CD730042 antibody (antibody, IgG1, V domains shown) VH: GVQLVQSGGGLVQPGGSLRLSCAASGFTFSSYGMHWVRQAPGKGLEWVAVISYDGSIKYYADSVKGRFTISRDDSKNALYLQMNSLRAEDTAVYYCSTLSGSYGYFDYWGRGTLVTVSS VL: QSVLTQPASVSGSPGQSITISCAGTSSDVGGYNYVSWYQQHPGKAPKLMIYEGSKRPSGVSNRFSGSKSGNTASLTISGLQAEDEADYYCSSYTTRSTRVFGGGTKLTVL | 0 nM⁻¹ |
| CD730047 antibody (antibody, IgG1, V domains shown) VH: EVQLVQSGGGVVQPGRSLRLSCAASGFTFSSYGMHWVRQAPGKGLEWVAVISYDGSIKYYADSVKGRFAISRDNAKNTLYLQMNSLRREDTAMYYCASGLTGVAGALGVWGRGTLVTVSS VL: QSVLTQPPSASGAPGQRVTISCSGSSSNIGSNTVNWYQRLPGAAPQLLIYNNDQRPSGIPDRFSGSKSGTSGSLVISGLQSEDEADYYCAAWDDSLSGNVFGTGTKVTVL | 0 nM⁻¹ |
